The test concerns the target HsUbcH5b(C85S)~Ub oxyester-linked conjugate (human | mammalian) (UniProt P62837). Nature of the test: pull-down.

The stoichiometry N is a count of units in the complex or per binding partner. “HsUbcH5b(C85S)~Ub oxyester-linked conjugate (from UniProt P62837 1-147; P0CG48 1-76) (complex)”: the stoichiometry N was 4.
